# From patent publication US20250375530A1 (ALMAC DISCOVERY, published 2025)
# Legend:
# mouse ROR1-Fc (CHO) = biological target: T1, mouse ROR1-Fc (CHO) (mouse); assay: ELISA, mROR1-hFc coated
# T1 construct: also called mROR1-hFc; mROR1
# human ROR1-Fc (CHO) [1] = biological target: T2, human ROR1-Fc (CHO) (human); assay: ELISA, plate coated with human ROR1-hFc, HisMyc-tagged VNAR at a single 5 ug/mL, Abs 450 nm; no blank bar shown
# T2 construct: also called hROR1-Fc; huROR1-Fc
# human ROR1-Fc (CHO) [2] = biological target: T2, human ROR1-Fc (CHO); assay: ELISA dose response, plate coated with hROR1-Fc, HisMyc-tagged VNAR 0-5 ug/mL (linear axis), Abs 450 nm
# human ROR1-Fc (CHO) [3] = biological target: T2, human ROR1-Fc (CHO); assay: BLI, hROR1; MMAE conjugate
# T2 sequence (chain, as listed by the source limits assumed): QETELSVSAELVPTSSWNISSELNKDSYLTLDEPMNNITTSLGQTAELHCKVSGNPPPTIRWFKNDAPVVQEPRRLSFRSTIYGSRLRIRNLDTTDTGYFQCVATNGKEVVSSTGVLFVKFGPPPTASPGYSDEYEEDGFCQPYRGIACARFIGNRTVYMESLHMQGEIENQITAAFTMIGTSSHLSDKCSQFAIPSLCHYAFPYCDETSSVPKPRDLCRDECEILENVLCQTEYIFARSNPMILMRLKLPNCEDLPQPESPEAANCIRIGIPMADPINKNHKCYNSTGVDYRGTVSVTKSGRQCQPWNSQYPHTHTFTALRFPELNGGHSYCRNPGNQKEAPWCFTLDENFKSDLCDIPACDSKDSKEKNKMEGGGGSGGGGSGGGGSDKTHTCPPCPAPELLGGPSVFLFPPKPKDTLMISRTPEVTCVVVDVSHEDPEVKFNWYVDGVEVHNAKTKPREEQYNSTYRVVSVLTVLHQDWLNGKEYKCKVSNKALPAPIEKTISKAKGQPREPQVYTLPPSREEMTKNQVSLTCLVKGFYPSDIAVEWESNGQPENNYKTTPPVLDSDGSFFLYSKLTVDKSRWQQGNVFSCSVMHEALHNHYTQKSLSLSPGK
# T1 sequence (chain, as listed by the source limits assumed): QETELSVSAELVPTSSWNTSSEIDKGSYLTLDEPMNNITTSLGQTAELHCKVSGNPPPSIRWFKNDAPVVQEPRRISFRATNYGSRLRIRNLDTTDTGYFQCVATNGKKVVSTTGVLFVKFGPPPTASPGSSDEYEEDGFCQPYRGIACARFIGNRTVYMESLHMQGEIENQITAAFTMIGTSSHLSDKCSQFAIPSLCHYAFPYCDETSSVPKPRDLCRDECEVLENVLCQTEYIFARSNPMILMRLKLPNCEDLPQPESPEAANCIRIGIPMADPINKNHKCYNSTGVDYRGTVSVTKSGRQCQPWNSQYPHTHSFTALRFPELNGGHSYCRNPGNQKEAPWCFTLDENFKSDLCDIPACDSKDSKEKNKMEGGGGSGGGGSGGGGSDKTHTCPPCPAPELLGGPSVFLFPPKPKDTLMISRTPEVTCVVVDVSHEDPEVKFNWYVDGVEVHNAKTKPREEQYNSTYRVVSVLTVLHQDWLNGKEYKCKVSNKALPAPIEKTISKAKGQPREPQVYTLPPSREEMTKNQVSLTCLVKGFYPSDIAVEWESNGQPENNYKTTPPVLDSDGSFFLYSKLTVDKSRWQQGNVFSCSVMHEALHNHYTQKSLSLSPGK
Binder,binding result (mouse ROR1-Fc (CHO)),binding result (human ROR1-Fc (CHO) [1]),binding result (human ROR1-Fc (CHO) [2]),Kd (human ROR1-Fc (CHO) [3]) [pM]
"P3A1 G1 AE3.S (VNAR, VNAR; entry includes the HisMyc tag) VNAR: TRVDQSPSSLSASVGDRVTITCVLTGTRYGLYSSTYWYRKNPGSSDEERISISGRYSESVNKGTKSFTLTISSLQPEDSATYYCRAREARHPWLRQWYDGAGTKVEIKQ",binds,binds,–,–
"P3A1 G1 NAG8.S (VNAR, VNAR; entry includes the HisMyc tag) VNAR: TRVDQSPSSLSASVGDRVTITCVLTGTKYGLYASTYWYRKNPGSPNKDRMIIGGRYSESVNNGTKSFTLTISSLQPEDSATYYCRAREARHPWLRQWYDGAGTKVEIKQ",–,–,binds,–
"P3A1 G1 NAC6.S (VNAR, VNAR; entry includes the HisMyc tag) VNAR: TRVDQSPSSLSASVGDRVTITCVLTDTRYALYSSTYWYRKNPGSTDEERISIGGRYSESVNKGSKSFTLTISSLQPEDSATYYCRAREARHPWLRQWYDGAGTKVEIKQ",binds,binds,–,–
"P3A1 G1 AF7.S (VNAR, VNAR; entry includes the HisMyc tag) VNAR: TRVDQSPSSLSASVGDRVTITCVLTGTKYGLYASTYWYRKNPGSTDKERIIIGGRYSESVNNRSKSFTLTISSLQPEDSATYYCRAREARHPWLRQWYDGAGTKVEIKQ",–,–,binds,–
"G3CP G4-P3A1G1AE3 MA-vc-PAB-MMAE conjugate (Cys linker) (VNAR, not shown: small tags and cut ends, MA-vc-PAB-MMAE on the single cysteine of the linker PGVQPCPGGGGGS, DAR 1.0) TRVDQSPSSLSASVGDRVTITCVLTDANYGLAATYWYRKNPGSSNKERISISGRYSESVNKGTMSFTLTISSLQPEDSATYYCRAYPWGAGAPYNVQWYDGAGTKVEIKPGVQPCPGGGGGSTRVDQSPSSLSASVGDRVTITCVLTGTRYGLYSTYWYRKNPGSSDEERISISGRYSESVNKGTKSFTLTISSLQPEDSATYYCRAREARHPWLRQWYDGAGTKVEIK",–,–,–,760
